Patent US20180162947A1 (UCB, published 2018)
Positions count from the first letter of the chain named. Names and notes keep the numbering of the source. Values joined by “and” are separate entries in the source; they are usually repeats but may differ in a detail not shown here. Identical values can stand only once. Values belong to the binder of their own block, whether it stands above or below them.

How the values were obtained:
[1] = target: T1, recombinant human CSF-1R (form not stated) (human, UniProt P07333 20-512, limits assumed); assay: BIAcore, experiment 2 of 3
T1 construct: for the ELISA no species is stated; also called recombinant CSF-1R; recombinant CSF-1R protein
T1 sequence (P07333 20-512 limits assumed): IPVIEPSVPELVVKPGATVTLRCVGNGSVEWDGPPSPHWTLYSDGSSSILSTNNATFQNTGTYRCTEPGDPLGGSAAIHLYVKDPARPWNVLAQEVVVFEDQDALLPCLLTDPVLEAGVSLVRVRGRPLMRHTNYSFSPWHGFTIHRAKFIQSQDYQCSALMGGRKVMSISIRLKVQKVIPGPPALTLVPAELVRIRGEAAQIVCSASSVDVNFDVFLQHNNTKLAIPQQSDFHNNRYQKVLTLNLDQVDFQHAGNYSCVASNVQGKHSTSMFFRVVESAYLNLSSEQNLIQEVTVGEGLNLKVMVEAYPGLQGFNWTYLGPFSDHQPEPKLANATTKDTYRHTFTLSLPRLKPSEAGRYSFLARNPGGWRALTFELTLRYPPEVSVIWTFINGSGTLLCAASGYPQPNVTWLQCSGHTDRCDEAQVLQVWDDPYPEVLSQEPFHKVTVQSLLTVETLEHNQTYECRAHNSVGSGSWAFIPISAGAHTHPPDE
Experimental: (§1) The assay format was capture of the anti-CSF-1R antibodies by immobilised anti-human IgG,F(ab′)₂, then a titration of hCSF-1R/Fc over the captured surface. BIA (Biomolecular Interaction Analysis) was performed using a BIAcore 3000 (GE Healthcare Bio-Sciences AB). All experiments were performed at 25° C. An AffiniPure F(ab′)₂ fragment goat anti-human IgG, F(ab′)₂ fragment specific (Jackson ImmunoResearch), was immobilised on a CM5 Sensor Chip (GE Healthcare Bio-Sciences AB) via amine coupling chemistry to a level of ˜5000 response units (RU). HBS-EP buffer (10 mM HEPES, pH 7.4, 0.15M NaCl, 3 mM EDTA, 0.005% Surfactant P20, GE Healthcare Bio-Sciences AB) was used as the running buffer with a flow rate of 10 μl/min.

[2] = target: T1, recombinant human CSF-1R (form not …); assay: BIAcore, humanisation stage, crude cell supernatant
[3] = target: T1, recombinant human CSF-1R (form not …); assay: BIAcore, experiment 3 of 3
Experimental: as §1

[4] = target: T1, recombinant human CSF-1R (form not …); assay: BIAcore, experiment 1 of 3
Experimental: as §1

[5] = target: T1, recombinant human CSF-1R (form not …); assay: BIAcore, mean of 3 (fourth row, unlabelled)
Experimental: as §1

[6] = target: T2, human CSF-1R on cells (THP-1 cells, transfected HEK293F cells, primary human monocytes) (human, UniProt P07333 20-972); assay: cell-based or functional assay
T2 sequence (P07333 20-972): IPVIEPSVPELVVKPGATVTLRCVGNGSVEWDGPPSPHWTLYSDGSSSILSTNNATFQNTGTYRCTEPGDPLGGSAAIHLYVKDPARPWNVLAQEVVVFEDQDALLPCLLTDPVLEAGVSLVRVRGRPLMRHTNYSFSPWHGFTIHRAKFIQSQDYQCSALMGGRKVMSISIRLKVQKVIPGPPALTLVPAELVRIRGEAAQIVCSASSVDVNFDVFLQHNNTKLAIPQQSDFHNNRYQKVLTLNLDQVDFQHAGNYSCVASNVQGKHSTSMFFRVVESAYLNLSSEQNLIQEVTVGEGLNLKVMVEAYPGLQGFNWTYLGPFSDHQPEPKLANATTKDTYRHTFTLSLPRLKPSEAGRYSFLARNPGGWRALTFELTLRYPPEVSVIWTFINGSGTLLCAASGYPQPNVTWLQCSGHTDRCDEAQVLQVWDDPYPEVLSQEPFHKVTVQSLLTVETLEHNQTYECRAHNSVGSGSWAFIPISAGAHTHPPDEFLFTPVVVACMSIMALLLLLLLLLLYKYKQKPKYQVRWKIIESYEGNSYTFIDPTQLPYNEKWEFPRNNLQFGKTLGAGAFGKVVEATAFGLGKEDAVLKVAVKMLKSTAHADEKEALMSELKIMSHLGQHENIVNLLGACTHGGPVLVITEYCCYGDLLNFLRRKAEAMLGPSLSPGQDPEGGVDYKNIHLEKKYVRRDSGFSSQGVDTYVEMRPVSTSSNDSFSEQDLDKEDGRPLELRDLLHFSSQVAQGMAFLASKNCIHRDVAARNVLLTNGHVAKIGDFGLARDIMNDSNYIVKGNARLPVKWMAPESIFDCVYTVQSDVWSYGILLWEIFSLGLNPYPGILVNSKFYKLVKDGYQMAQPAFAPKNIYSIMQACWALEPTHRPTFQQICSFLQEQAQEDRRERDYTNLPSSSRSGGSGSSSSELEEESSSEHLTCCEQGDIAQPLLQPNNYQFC

[7] = target: T1, recombinant human CSF-1R (form not …); assay: BIAcore, DG/SG comparison, crude cell supernatant
[8] = target: T2, human CSF-1R on cells (THP-1 cells, …); assay: cell-based or functional assay; remark: listed apart in the source
[9] = target: T1, recombinant human CSF-1R (form not …); assay: BIAcore, purified antibody, experiment 2
[10] = target: T2, human CSF-1R on cells (THP-1 cells, …); assay: quantitative flow cytometry on THP-1 cells, Alexa-488-labelled antibody
[11] = target: T2, human CSF-1R on cells (THP-1 cells, …); assay: inhibition of CSF-1 binding to THP-1 cells
[12] = target: T1, recombinant human CSF-1R (form not …); assay: BIAcore, purified antibody, mean
[13] = target: T1, recombinant human CSF-1R (form not …); assay: BIAcore, recombinant CSF-1R protein
[14] = target: T1, recombinant human CSF-1R (form not …); assay: BIAcore, purified antibody, experiment 1
[15] = target: T2, human CSF-1R on cells (THP-1 cells, …); assay: cell-based or functional assay; remark: listed apart in the source
[16] = target: T1, recombinant human CSF-1R (form not …); assay: ELISA ligand-blocking assay, antibody pre-mixed with 100 ng/ml CSF-1 (competitor), plate-bound CSF-1R
Text: (§2) This method is from here on referred to as the ‘ELISA ligand-blocking assay’.

[17] = target: T1, recombinant human CSF-1R (form not …); assay: ELISA ligand-blocking assay, antibody pre-mixed with 1 ng/ml CSF-1 (competitor), plate-bound CSF-1R
Text: as §2

[18] = target: T1, recombinant human CSF-1R (form not …); assay: ELISA ligand-blocking assay, antibody pre-mixed with 10 ng/ml CSF-1 (competitor), plate-bound CSF-1R
Text: as §2

[19] = target: T3, recombinant human CSF-1R/Fc fusion protein (R&D Systems) (human, UniProt P07333 20-517); assay: BIAcore 3000, antibody captured by anti-human IgG F(ab')2, hCSF-1R/Fc in solution, 25 C
T3 construct: extracellular domain; Bought from R&D Systems; also called hCSF-1R/Fc; not shown: Fc part of the bought fusion protein, not described
T3 sequence (P07333 20-517): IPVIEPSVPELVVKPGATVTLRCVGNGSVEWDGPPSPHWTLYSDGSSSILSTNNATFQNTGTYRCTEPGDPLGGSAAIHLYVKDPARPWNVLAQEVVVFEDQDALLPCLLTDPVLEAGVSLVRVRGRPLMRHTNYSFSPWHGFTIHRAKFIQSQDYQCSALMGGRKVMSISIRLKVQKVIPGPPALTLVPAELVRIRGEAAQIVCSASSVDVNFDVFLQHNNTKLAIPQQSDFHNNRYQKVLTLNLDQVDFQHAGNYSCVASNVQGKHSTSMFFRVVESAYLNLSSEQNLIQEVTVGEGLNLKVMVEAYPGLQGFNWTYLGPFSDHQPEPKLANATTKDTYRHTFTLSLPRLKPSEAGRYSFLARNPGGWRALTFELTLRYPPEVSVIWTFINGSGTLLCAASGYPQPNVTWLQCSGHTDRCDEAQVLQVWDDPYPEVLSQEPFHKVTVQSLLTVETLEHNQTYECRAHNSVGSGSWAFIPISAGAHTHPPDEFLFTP
Experimental: Antibodies were tested for their ability to bind CSF-1R in a BIAcore assay by measurement of binding kinetics to a purified recombinant CSF-1R/Fc fusion protein.
as §1
Recombinant human CSF-1R/Fc (R&D Systems) was passed over the captured anti-CSF-1R antibody at 5 nM at a flow rate of 30 ul/min for 5 min, then the flow rate was increased to 100 ul/min for 30 min for the dissociation phase. The injection at 5 nM was performed twice along with a corresponding buffer control. These sensorgrams were used to generate the dissociation rate. […] These sensorgrams were used to generate the association rate. The surface was regenerated at a flow rate of 10 ul/min by a 10 ul injection of 40 mM HCl followed by a 5 ul injection of 10 mM NaOH. Double referenced background subtracted binding curves were analysed using the BIAevaluation software (version 4.1) following standard procedures. Kinetic parameters were determined from the fitting algorithm.

Kd [1]: 2.4 pM
koff [1]: 6.04e-06 s⁻¹
kon [1]: 2.57e+06 M⁻¹ s⁻¹
Kd [2]: ≤ 2.4 pM
koff [2]: ≤ 5e-06 s⁻¹
kon [2]: 2.04e+06 M⁻¹ s⁻¹
Kd [3]: 3.9 pM
koff [3]: 9.88e-06 s⁻¹
kon [3]: 2.51e+06 M⁻¹ s⁻¹
Kd [4]: 3.2 pM
koff [4]: 8.47e-06 s⁻¹
kon [4]: 2.65e+06 M⁻¹ s⁻¹
Kd [5]: 3.2 pM
koff [5]: 8.13e-06 s⁻¹
kon [5]: 2.58e+06 M⁻¹ s⁻¹
B1: 969gH1gL1 (antibody, human IgG4 S228P, kappa, name in Kabat numbering, V domains shown)
VH: EVTLKESGPALVKPTQTLTLTCTFSGFSLTTYGMGVGWIRQPPGKALEWLANIWWDDDKYYNPSLKNRLTISKDTSKNQAVLTMTNMDPVDTATYYCARIGPIKYPTAPYRYFDFWGQGTMVTVSS
VL: DIQMTQSPSSLSASVGDRVTITCLASEDIYDNLAWYQKKPGKAPKLLIYYASSLQDGVPSRFSGSGSGTDYTLTISSLQPEDFATYFCLQDSEYPWTFGGGTKVEIKR
notes: Humanised IgG4 (S241P)/kappa; positions are Kabat; also called Ab969.g1

Kd [2]: 4.4 pM
koff [2]: 6.23e-06 s⁻¹
kon [2]: 1.4e+06 M⁻¹ s⁻¹
B2: 969gH2gL6 (antibody, human IgG4 S228P, kappa, name in Kabat numbering, V domains shown)
VH: B1 VH with A80V
VL: B1 VL with Y71F, F87Y
notes: Humanised IgG4 (S241P)/kappa; positions are Kabat; also called Ab969.g9

Kd [1]: 3.7 pM
koff [1]: 8.95e-06 s⁻¹
kon [1]: 2.44e+06 M⁻¹ s⁻¹
Kd [2]: 2.3 pM
koff [2]: 5.23e-06 s⁻¹
kon [2]: 2.27e+06 M⁻¹ s⁻¹
Kd [3]: 2.6 pM
koff [3]: 6.63e-06 s⁻¹
kon [3]: 2.54e+06 M⁻¹ s⁻¹
Kd [4]: 3.6 pM
koff [4]: 8.84e-06 s⁻¹
kon [4]: 2.43e+06 M⁻¹ s⁻¹
Kd [5]: 3.3 pM
koff [5]: 8.14e-06 s⁻¹
kon [5]: 2.47e+06 M⁻¹ s⁻¹
B3: 969gH2gL1 (antibody, human IgG4 S228P, kappa, name in Kabat numbering, V domains shown)
VH: B1 VH with A80V
VL: B1 VL
notes: Humanised IgG4 (S241P)/kappa; positions are Kabat; also called Ab969.g6

Kd [1]: 3.6 pM
koff [1]: 9.41e-06 s⁻¹
kon [1]: 2.6e+06 M⁻¹ s⁻¹
Kd [2]: 4.4 pM
koff [2]: 9.64e-06 s⁻¹
kon [2]: 2.2e+06 M⁻¹ s⁻¹
Kd [3]: 4.6 pM
koff [3]: 1.15e-05 s⁻¹
kon [3]: 2.52e+06 M⁻¹ s⁻¹
Kd [4]: 3 pM
koff [4]: 7.73e-06 s⁻¹
kon [4]: 2.57e+06 M⁻¹ s⁻¹
IC50, MCP-1 inhibition assay, Donor 1 [6]: 46.3 ng/mL
IC50, MCP-1 inhibition assay, Donor 2 [6]: 6.1 ng/mL
IC50 ratio against chimeric 969.g0 (number in parentheses), Donor 1 [6]: 1.5 ratio
IC50 ratio against chimeric 969.g0 (number in parentheses), Donor 2 [6]: 1.1 ratio
Mean chimeric/graft IC50 ratio [6]: 1.3 ratio
Kd [5]: 3.7 pM
koff [5]: 9.55e-06 s⁻¹
kon [5]: 2.56e+06 M⁻¹ s⁻¹
B4: 969gH2gL4 (antibody, human IgG4 S228P, kappa, name in Kabat numbering, V domains shown)
VH: B1 VH with A80V
VL: B1 VL with F87Y
notes: Humanised IgG4 (S241P)/kappa; positions are Kabat; also called Ab969.g7

Kd [7]: 2 pM
koff [7]: 5e-06 s⁻¹
kon [7]: 2.54e+06 M⁻¹ s⁻¹
B5: 969gH2gL7 SG (antibody, human IgG4 S228P, kappa, V domains shown)
VH: B1 VH with A80V
VL: B1 VL with K38Q, D56S, F87Y
notes: Humanised IgG4 (S241P)/kappa; also called 969H2gL7(SG)

Kd [2]: 6.5 pM
koff [2]: 5e-06 s⁻¹
kon [2]: 768000 M⁻¹ s⁻¹
B6: 969gH2gL5 (antibody, human IgG4 S228P, kappa, name in Kabat numbering, V domains shown)
VH: B1 VH with A80V
VL: B1 VL with K38Q, Y71F
notes: Humanised IgG4 (S241P)/kappa; positions are Kabat

Kd [2]: 3.4 pM
koff [2]: 7.29e-06 s⁻¹
kon [2]: 2.12e+06 M⁻¹ s⁻¹
B7: 969gH2gL3 (antibody, human IgG4 S228P, kappa, name in Kabat numbering, V domains shown)
VH: B1 VH with A80V
VL: B1 VL with Y71F
notes: as for B6

Kd [1]: 3.4 pM
koff [1]: 6.65e-06 s⁻¹
kon [1]: 1.94e+06 M⁻¹ s⁻¹
Kd [2]: 4.1 pM
koff [2]: 5e-06 s⁻¹
kon [2]: 1.23e+06 M⁻¹ s⁻¹
Kd [3]: 2.5 pM
koff [3]: 5e-06 s⁻¹
kon [3]: 1.97e+06 M⁻¹ s⁻¹
Kd [4]: 2.5 pM
koff [4]: 5e-06 s⁻¹
kon [4]: 1.99e+06 M⁻¹ s⁻¹
Kd [7]: 2.3 pM
koff [7]: 5e-06 s⁻¹
kon [7]: 2.18e+06 M⁻¹ s⁻¹
Kd [5]: 2.8 pM
koff [5]: 5.55e-06 s⁻¹
kon [5]: 1.97e+06 M⁻¹ s⁻¹
B8: 969gH2gL8 (antibody, human IgG4 S228P, kappa, name in Kabat numbering, V domains shown)
VH: B1 VH with A80V
VL: B1 VL with K38Q, Y71F, F87Y
notes: Humanised IgG4 (S241P)/kappa, no donor residues; position is Kabat; also called Ab969.g4

IC50, IL-34-dependent human monocyte assay (MCP-1 by ELISA), 100 ng/ml IL-34, Donor 1 [8]: 20.1 ng/mL
IC50, IL-34-dependent human monocyte assay (MCP-1 by ELISA), 100 ng/ml IL-34, Donor 2 [8]: 9.79 ng/mL
Kd [9]: 4.2 pM
koff [9]: 9.1e-06 s⁻¹
kon [9]: 2.16e+06 M⁻¹ s⁻¹
Kd [1]: 3.9 pM
koff [1]: 1.1e-05 s⁻¹
kon [1]: 2.79e+06 M⁻¹ s⁻¹
Kd [2]: 3.5 pM
koff [2]: 7.99e-06 s⁻¹
kon [2]: 2.31e+06 M⁻¹ s⁻¹
Kd [10]: 2.2 nM
IC50 [11]: 2.89 ng/mL
Kd [3]: 3.6 pM
koff [3]: 9.51e-06 s⁻¹
kon [3]: 2.68e+06 M⁻¹ s⁻¹
Kd [4]: 3.6 pM
koff [4]: 1.03e-05 s⁻¹
kon [4]: 2.83e+06 M⁻¹ s⁻¹
Kd [7]: 2 pM
koff [7]: 8.53e-06 s⁻¹
kon [7]: 4.35e+06 M⁻¹ s⁻¹
Kd [12]: 4.3 pM
koff [12]: 9.3e-06 s⁻¹
kon [12]: 2.16e+06 M⁻¹ s⁻¹
Kd [13]: 4.8 pM
Kd [14]: 4.4 pM
koff [14]: 9.49e-06 s⁻¹
kon [14]: 2.16e+06 M⁻¹ s⁻¹
mean IC50, MCP-1 inhibition assay, primary human monocytes, 100 ng/ml CSF-1 [15]: 24.6 ng/mL
IC50 [16]: 0.829 µg/mL
IC50 [17]: 0.0128 µg/mL
IC50, MCP-1 inhibition assay, Donor 1 [6]: 31 ng/mL
IC50, MCP-1 inhibition assay, Donor 2 [6]: 5.7 ng/mL
IC50, MCP-1 inhibition assay, Donor 3 [6]: 59.4 ng/mL
IC50, MCP-1 inhibition assay, Donor 4 [6]: 41.7 ng/mL
IC50, MCP-1 inhibition assay, Donor 5 [6]: 20.9 ng/mL
IC50, MCP-1 inhibition assay, Donor 6 [6]: 7 ng/mL
Kd [5]: 3.7 pM
koff [5]: 1.03e-05 s⁻¹
kon [5]: 2.77e+06 M⁻¹ s⁻¹
IC50 [18]: 0.0793 µg/mL
Kd [19]: 9.65 pM and 9.6 pM
koff [19]: 2.49e-05 s⁻¹
kon [19]: 2.58e+06 M⁻¹ s⁻¹
B9: chimeric antibody 969 (rat variable regions, human gamma-4 heavy chain constant region and human kappa chain constant region) (antibody, human IgG4, V domains shown)
VH: QVTLKESGPGILQPSQTLSLTCTFSGFSLTTYGMGVGWIRQPSGKGLEWLANIWWDDDKYYNPSLKNRLTISKDTSNNQAFLKLTNVHTSDSATYYCARIGPIKYPTAPYRYFDFWGPGTMVTVSS
VL: DIQMTQSPASLSASLGETVSIECLASEDIYDNLAWYQKKPGKSPHLLIYYASSLQDGVPSRFSGSGSGTQYSLKINSLESEDAATYFCLQDSEYPWTFGGGTKLELKR
modifications: Alexa-488 label in the cell-based affinity assay; not carried by the letters.
notes: Full-length human IgG4 (S241P)/kappa chimeric; also called Ab969
